The text below walks through data of patent publication US20180133314A1 (Daiichi Sankyo, published 2018).

For test [1], the target named is T1, human FGFR2 IIIc variant protein (human, UniProt P21802 22-821).
T1 construct: also called hFGFR2 IIIc
Briefly: flow cytometry, hybridoma culture supernatant on transfected HEK293T cells. As to the method: HEK293T cells were inoculated at a density of 5×10⁴ cells/cm² to a 225-cm² flask (manufactured by Sumitomo Bakelite Co., Ltd.) and cultured overnight at 37° C. under 5% CO₂ conditions in a DMEM medium containing 10% FBS. On the next day, the pcDNA-DEST40-FGFR2 IIIc, the pcDNA-DEST40-FGFR2 IIIb or a control pcDNA-DEST40 was transfected to the HEK293T cells using Lipofectamine 2000, and the cells were further cultured overnight at 37° C. under 5% CO₂ conditions. On the next day, the expression vector-transfected HEK293T cells were treated with TrypLE Express (manufactured by Life Technologies Corp.), washed with DMEM containing 10% FBS, and then suspended in PBS containing 5% FBS. The obtained cell suspension was used in flow cytometry analysis.
The pcDNA-DEST40-FGFR2 IIIc and pcDNA-DEST40-FGFR2 IIIb binding specificity of the antibody produced by each hybridoma determined to be positive by Cell-ELISA in Example 1)-4 was further confirmed by flow cytometry. Each HEK293T cell suspension prepared in Example 1)-5-1 was centrifuged to remove a supernatant. […] The data was analyzed using Flowjo (manufactured by Tree Star Inc.). After removal of 7-aminoactinomycin D-positive dead cells by gating, the FITC fluorescence intensity of live cells was plotted to a histogram.

Test [2] addresses T2, human FGFR2 IIIb variant protein (human, UniProt P21802-3 22-822).
T2 construct: whole, on cells; also called hFGFR2 IIIb
Briefly: immunostaining of formalin-fixed, paraffin-embedded transfected 293alpha cell blocks (denatured), proteinase K retrieval.

Test [3] deals with T3, human FGFR3 IIIc variant protein (human, UniProt P22607 23-806). The description is as above.
Test [4] deals with T4, human FGFR1 IIIc variant protein (human, UniProt P11362 22-822). The test is described as above.
In test [5] the target is T1, human FGFR2 IIIc variant protein. Briefly: immunostaining of formalin-fixed, paraffin-embedded transfected 293alpha cell blocks (denatured), 15 µg/mL. As to the method: The cells were transfected with the FGFR1 IIIb, FGFR1 IIIc, FGFR2 IIIb, FGFR2 IIIc, FGFR3 IIIb, FGFR3 IIIc, or FGFR4 expression vector constructed in Examples 1)-3-1, 1)-3-2, and 1)-3-3 or an empty vector, i.e., pcDNA-DEST40-FGFR1 IIIb, pcDNA-DEST40-FGFR1 IIIc, pcDNA-DEST40-FGFR2 IIIb, pcDNA-DEST40-FGFR2 IIIc, pcDNA-DEST40-FGFR3 IIIb, pcDNA-DEST40-FGFR3 IIIc, pcDNA-DEST40-FGFR4, or pcDNA-DEST40 using FuGENE 6 (manufactured by Roche Diagnostics K.K.) and cultured for two nights at 37° C. under 5% CO₂ conditions. The obtained cells were recovered using TrypLE Express (manufactured by Life Technologies Corp.) and centrifuged to obtain a pellet, which was then washed once with PBS and centrifuged. The resulting pellet was fixed in 20% neutral buffered formalin.
Each sample was stained using an automatic staining apparatus (LEICA BOND-III; manufactured by Leica Biosystems Nussloch GmbH). For deparaffinization, the sample was heated to 72° C., then Bond Dewax Solution (manufactured by Leica Biosystems Nussloch GmbH) was added thereto, and the sample was incubated for 30 seconds, followed by addition of ethanol and washing 4 times with Bond Wash Solution (manufactured by Leica Biosystems Nussloch GmbH). Enzyme Proteinase K (IHC) (manufactured by Leica Biosystems Nussloch GmbH) diluted 200-fold was added thereto, and the sample was incubated at 37° C. for 5 minutes. […]

For test [6], the target named is T2, human FGFR2 IIIb variant protein. Briefly: flow cytometry on transfected HEK293T cells (non-denatured). From the text:
(§1) The binding specificity of the mouse chimeric FR2-2nd_#028 and the mouse chimeric FR2-2nd_#023 prepared in Example 3)-7 for non-denatured molecules of the FGFR family was confirmed by flow cytometry. Each HEK293T cell suspension prepared in Example 3)-8-1 was centrifuged to remove a supernatant. Then, the pcDNA-DEST40-FGFR1 IIIb-, pcDNA-DEST40-FGFR1 IIIc-, pcDNA-DEST40-FGFR2 IIIb-, pcDNA-DEST40-FGFR2 IIIc-, pcDNA-DEST40-FGFR3 IIIb-, pcDNA-DEST40-FGFR3 IIIc-, pcDNA-DEST40-FGFR4-, or pcDNA-DEST40-transfected HEK293T cells were suspended by the addition of a negative control mouse IgG1 (manufactured by R&D Systems, Inc.) or the mouse chimeric FR2-2nd_#028 or the mouse chimeric FR2-2nd_#023 adjusted to 5 μg/ml, and left standing at 4° C. for 1 hour. The cells were washed once with PBS containing 5% FBS, then suspended by the addition of Fluorescein-Conjugated Goat IgG Fraction to Mouse IgG (manufactured by MP Biomedicals, Inc.) diluted 500-fold with PBS containing 5% FBS, and left standing at 4° C. for 1 hour. […] The data was analyzed using Flowjo (manufactured by Tree Star Inc.). After removal of 7-aminoactinomycin D-positive dead cells by gating, the average fluorescence intensity (MFI) of the FITC of live cells was calculated (FIG. 1).

For test [7] the target is unchanged. The test is described as follows: immunostaining of formalin-fixed, paraffin-embedded blocks of 293alpha cells forced to express FGFR2 IIIb; antibody at 15 ug/mL, heat retrieval.
Test [8] addresses T1, human FGFR2 IIIc variant protein. Briefly: immunostaining of formalin-fixed, paraffin-embedded blocks of 293alpha cells forced to express FGFR2 IIIc; antibody at 15 ug/mL, heat retrieval.
Test [9] has as its target T3, human FGFR3 IIIc variant protein. The test is described as follows: immunostaining of formalin-fixed, paraffin-embedded transfected 293alpha cell blocks (denatured), heat retrieval.
For test [10], the target named is T4, human FGFR1 IIIc variant protein. Described as above.
Test [11] has as its target T1, human FGFR2 IIIc variant protein. Briefly: immunostaining of formalin-fixed, paraffin-embedded blocks of 293alpha cells forced to express FGFR2 IIIc; antibody at 15 ug/mL, heat retrieval. The source holds these as a separate data set.
Test [12] has as its target T2, human FGFR2 IIIb variant protein. The test is described as follows: immunostaining of formalin-fixed, paraffin-embedded blocks of 293alpha cells forced to express FGFR2 IIIb; antibody at 15 ug/mL, heat retrieval. This is another data set of the same source.
Test [13] deals with T3, human FGFR3 IIIc variant protein. The test is described as follows: flow cytometry on transfected HEK293T cells (non-denatured).
Source text: as §1

T4 sequence (P11362 22-822 limits assumed, change not shown): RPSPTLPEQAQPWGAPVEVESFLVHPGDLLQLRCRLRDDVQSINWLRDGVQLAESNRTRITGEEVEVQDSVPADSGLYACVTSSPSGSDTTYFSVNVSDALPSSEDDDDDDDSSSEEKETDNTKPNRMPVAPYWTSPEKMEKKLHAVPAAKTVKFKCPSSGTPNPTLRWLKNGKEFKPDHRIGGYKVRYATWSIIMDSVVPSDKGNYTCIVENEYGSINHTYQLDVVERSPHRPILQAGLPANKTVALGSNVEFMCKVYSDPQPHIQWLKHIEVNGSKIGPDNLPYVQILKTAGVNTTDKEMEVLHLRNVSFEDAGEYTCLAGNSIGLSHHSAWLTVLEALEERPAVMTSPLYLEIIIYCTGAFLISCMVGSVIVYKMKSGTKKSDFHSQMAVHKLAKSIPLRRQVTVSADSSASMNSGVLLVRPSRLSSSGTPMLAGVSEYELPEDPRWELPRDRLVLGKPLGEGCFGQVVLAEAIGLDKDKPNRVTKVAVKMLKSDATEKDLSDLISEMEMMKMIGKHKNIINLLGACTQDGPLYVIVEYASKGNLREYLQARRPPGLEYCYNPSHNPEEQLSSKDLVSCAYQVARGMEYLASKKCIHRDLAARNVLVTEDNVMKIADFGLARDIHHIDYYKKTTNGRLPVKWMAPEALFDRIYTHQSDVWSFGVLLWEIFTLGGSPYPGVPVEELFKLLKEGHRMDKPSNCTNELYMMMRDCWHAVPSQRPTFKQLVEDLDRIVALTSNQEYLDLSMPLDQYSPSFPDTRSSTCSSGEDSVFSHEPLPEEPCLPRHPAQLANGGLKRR
T1 sequence (P21802 22-821 limits assumed, change not shown): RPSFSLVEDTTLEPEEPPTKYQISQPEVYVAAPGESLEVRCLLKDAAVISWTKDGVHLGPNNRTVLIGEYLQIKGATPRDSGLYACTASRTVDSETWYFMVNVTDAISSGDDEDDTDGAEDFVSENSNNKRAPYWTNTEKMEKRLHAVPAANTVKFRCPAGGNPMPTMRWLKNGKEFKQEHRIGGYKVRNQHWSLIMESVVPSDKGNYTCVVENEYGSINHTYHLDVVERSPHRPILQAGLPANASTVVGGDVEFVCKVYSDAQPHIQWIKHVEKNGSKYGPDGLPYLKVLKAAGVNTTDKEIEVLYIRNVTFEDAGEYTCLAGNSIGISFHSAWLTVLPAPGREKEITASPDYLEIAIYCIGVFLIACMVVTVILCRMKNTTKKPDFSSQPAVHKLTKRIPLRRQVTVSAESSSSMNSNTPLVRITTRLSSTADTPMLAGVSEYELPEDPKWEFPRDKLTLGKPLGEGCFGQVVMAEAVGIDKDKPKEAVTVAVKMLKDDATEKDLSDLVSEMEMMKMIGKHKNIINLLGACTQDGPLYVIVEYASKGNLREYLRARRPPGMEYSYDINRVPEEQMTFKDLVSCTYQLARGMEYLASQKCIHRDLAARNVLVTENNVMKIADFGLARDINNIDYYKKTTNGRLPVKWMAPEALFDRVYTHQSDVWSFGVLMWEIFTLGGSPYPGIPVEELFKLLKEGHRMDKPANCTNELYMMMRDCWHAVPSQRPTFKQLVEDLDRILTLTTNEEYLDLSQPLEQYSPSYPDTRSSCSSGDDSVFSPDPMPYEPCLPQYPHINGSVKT
T3 sequence (P22607 23-806 limits assumed, change not shown): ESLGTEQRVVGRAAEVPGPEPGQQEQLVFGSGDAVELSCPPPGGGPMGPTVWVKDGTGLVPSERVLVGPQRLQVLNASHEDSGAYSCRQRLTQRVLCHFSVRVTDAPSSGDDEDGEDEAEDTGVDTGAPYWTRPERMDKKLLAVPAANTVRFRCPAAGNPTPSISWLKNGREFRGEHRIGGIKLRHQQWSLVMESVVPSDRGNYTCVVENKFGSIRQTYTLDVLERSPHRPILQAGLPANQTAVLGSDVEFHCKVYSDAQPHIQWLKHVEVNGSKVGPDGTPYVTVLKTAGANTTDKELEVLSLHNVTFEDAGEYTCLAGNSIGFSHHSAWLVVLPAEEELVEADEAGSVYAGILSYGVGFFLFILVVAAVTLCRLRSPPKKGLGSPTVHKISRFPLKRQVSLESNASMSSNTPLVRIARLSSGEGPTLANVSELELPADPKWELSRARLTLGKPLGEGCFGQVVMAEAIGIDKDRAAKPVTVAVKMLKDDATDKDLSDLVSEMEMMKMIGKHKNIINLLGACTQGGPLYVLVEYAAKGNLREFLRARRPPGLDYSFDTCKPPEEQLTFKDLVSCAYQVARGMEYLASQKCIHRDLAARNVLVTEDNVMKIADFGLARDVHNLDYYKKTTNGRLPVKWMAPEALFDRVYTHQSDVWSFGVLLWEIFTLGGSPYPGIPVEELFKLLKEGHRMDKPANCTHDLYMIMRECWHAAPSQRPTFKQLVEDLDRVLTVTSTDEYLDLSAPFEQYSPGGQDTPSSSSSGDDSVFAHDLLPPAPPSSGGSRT
T2 sequence (P21802 other isoform, or with tags, fused parts or gaps mutant limits assumed): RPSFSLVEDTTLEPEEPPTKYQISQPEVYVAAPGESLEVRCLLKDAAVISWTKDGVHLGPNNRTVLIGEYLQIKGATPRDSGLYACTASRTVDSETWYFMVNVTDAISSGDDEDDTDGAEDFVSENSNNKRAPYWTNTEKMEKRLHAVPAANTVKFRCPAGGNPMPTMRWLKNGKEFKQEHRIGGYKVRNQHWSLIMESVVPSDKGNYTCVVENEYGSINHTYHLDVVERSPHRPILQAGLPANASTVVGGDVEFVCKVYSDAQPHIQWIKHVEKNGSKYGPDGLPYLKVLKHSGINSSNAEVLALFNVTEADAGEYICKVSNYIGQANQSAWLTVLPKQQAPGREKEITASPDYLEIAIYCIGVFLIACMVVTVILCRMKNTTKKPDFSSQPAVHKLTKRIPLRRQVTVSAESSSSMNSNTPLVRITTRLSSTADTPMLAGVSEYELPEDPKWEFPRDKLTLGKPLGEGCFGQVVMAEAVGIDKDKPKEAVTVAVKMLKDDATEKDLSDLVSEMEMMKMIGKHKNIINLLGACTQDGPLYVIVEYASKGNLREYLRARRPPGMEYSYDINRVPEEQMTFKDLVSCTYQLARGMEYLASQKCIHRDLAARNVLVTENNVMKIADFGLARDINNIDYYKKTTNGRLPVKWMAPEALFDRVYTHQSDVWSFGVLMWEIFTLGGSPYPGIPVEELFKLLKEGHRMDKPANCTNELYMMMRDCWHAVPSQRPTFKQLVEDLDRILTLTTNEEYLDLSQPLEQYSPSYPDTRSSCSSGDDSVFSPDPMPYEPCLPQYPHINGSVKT

B1: rat anti-FGFR2 antibody FR2-2nd_#028 (antibody, V domains shown)
VH: EVQLVESGGGLVQPGRSLKLSCAASGFTFSDYGMAWVRQAPTKGLEWVATISYDGSSTYYRDSVKGRFTISRENAKSTLSLQMDSLRSEDTATYYCTRHPTYYYIMDAWGQGASVTVSS
VL: DTVLTQSPALAVSLGQRVTISCRASKSVSTFMNWYQQKSGQQPKLLIYRASNLESGVPSRFSGSGSGTDFTLTIDPVEADDIANYYCQQSNELPLTFGSGTKLEIKR
notes: Rat monoclonal from hybridoma; also called rat FR2-2nd_#028; rat antibody FR2-2nd_#028
B1: the binding result in [1] is “binds”; in test [2], “no binding (tested: 15 µg/mL)”; in test [3], “no binding (tested: 15 µg/mL)”; in test [4] it was “no binding (tested: 15 µg/mL)”.

B2: mouse chimeric anti-FGFR2 antibody FR2-2nd_#028 (antibody, mouse IgG1, kappa, V domains shown)
VH: B1 VH
VL: B1 VL
notes: The full-chain entries may include a secretory signal; also called mouse chimeric FR2-2nd_#028; mouse IgG1 chimeric FR2-2nd_#028
Regarding B2, the binding result was “binds” in [5], “no binding (tested: 15 µg/mL)” in test [3], “no binding (tested: 15 µg/mL)” in [4] and “no binding (tested: 5 µg/ml)” in test [6].

B3: rat anti-FGFR2 antibody FR2-2nd_#023 (antibody, V domains shown)
VH: EVQLVESGGGLVQPGRSMKLSCAASGLTFSNYGMAWVRQAPKKGLEWVAFISHDGGSSYYRDSVEGRFIISRDNAKSTLSLQMDSLRSEDTATYYCTTAGDYYSDNDWYFDFWGPGIMVTVSS
VL: DIQMTQSPSLLSASVGDRVTLSCKASQSIYNSLAWYQQKLGEAPKLLIYDADSLQTGIPSRFSGSGSGTDYTLTISSLQPEDVATYFCQKYYSGWTFGGGTKLELKR
notes: Rat monoclonal from hybridoma; also called rat FR2-2nd_#023; rat antibody FR2-2nd_#023
For B3, the binding result in test [7] is reported as “binds”; in [8], “binds”; in [9], “no binding (tested: 15 µg/mL)”; in test [10], “no binding (tested: 15 µg/mL)”.

B4: mouse chimeric anti-FGFR2 antibody FR2-2nd_#023 (antibody, mouse IgG1, kappa, V domains shown)
VH: B3 VH
VL: B3 VL
notes: The full-chain entries may include a secretory signal; also called mouse chimeric FR2-2nd_#023; mouse IgG1 chimeric FR2-2nd_#023
Take B4: the binding result in test [11] is “binds”; in test [12], “binds”; in test [10], “no binding (tested: 15 µg/mL)”; in [13], “no binding (tested: 5 µg/ml)”.
